Measured values: US20140107315A1

Tests used:
[1] = biological target: human immunoglobulin G drug separated from human plasma (Gammagard, Baxter) (human); assay: SPR (Biacore 3000), human IgG immobilized on CM5 chip, ligand as analyte, 25 C, pH 7.4, 1:1 model
[2] = biological target: human IgG (Gamma globulin, Nichiyaku) (human); assay: affinity chromatography, ligand immobilized on HiTrap NHS-activated HP (6.5 mg/mL-gel), 1 mg/mL human IgG at 1.9 mL/min, 5% breakthrough
[3] = biological target: human immunoglobulin G drug separated from human plasma (Gammagard, Baxter) (human); assay: SPR (Biacore) as in Example 3, human IgG immobilized on chip, 1:1 model

| Substance | Ka [1] [M⁻¹] | 5% antibody dBC [2] [mg/mL-gel] | Ka [3] [M⁻¹] |
| --- | --- | --- | --- |
| C-K04R/K07E/G29A/K35R/K42R/K49R/K50H/K58G.1d (designed binder) | 2.7e+07 | – | – |
| C-K04R/K07R/G29A/K35R/K42R/K49Q/K50R/K58G.1d (designed binder) | 3.3e+07 | – | – |
| C-K04R/K07R/G29A/K35R/K42R/K49R/K50R/K58G.1d with Ser-Lys added at the C terminal (Brevibacillus, Example 4) (designed binder) | – | 25.7 | 2.2e+07 |

Further lines, results first:

| Ka [1] [M⁻¹] | 5% antibody dBC [2] [mg/mL-gel] | Ka [3] [M⁻¹] | Substance |
| --- | --- | --- | --- |
| 1.3e+07 | – | – | C-K04R/K07D/G29A/K35R/K42R/K49R/K50H/K58G.1d (designed binder) |
| 1.1e+07 | – | – | C-K04R/K07E/G29A/K35R/K42R/K49R/K50R/K58G.1d (designed binder) |
| 4.8e+07 | – | – | C-K04R/K07R/G29A/K35R/K42R/K49R/K50R/K58G.1d (from pGEX-2T, Example 2) (designed binder) |
